Assay in all cases: SEC
In one test the target is ΔNp63α V603D.
The target of test [1] is ΔNp63α R279H in the V603D background.
The next test has as its target ΔNp63α R304Q/V603D.

From PMC5798343 come the findings set out here.

Turning to ΔNp63α V603D (natural protein), in the test with ΔNp63α V603D, the stoichiometry N worked out at 4. Turning to “ΔNp63α R279H in the V603D background (natural protein)”, the stoichiometry N in test [1] came out at 4. As for ΔNp63α R304Q/V603D (natural protein), in the test with ΔNp63α R304Q/V603D, the stoichiometry N was found to be 4.
